Assay results taken from patent US20210253725A1 (BIONTECH, published 2021).
Changes are numbered by the printed parent chain. Names and notes keep the numbering of the source.

T1: CD27 protein (His-tagged, Sino Biological Inc. 10039-H08B1) (human, UniProt P26842 20-192)
T1 construct: bought; coated onto ELISA plates; also called human CD27; recombinant protein; not shown: His tag
T1 sequence (looked up): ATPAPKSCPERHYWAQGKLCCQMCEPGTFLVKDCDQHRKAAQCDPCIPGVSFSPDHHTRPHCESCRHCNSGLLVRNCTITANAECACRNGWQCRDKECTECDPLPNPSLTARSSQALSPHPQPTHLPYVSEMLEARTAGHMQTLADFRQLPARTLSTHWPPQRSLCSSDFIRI

T2: CD27 expressed on the cell surface (HT1080_CD27 cells) (human, UniProt P26842 20-260)
T2 construct: whole, on cells; also called K562_CD27
T2 sequence (looked up): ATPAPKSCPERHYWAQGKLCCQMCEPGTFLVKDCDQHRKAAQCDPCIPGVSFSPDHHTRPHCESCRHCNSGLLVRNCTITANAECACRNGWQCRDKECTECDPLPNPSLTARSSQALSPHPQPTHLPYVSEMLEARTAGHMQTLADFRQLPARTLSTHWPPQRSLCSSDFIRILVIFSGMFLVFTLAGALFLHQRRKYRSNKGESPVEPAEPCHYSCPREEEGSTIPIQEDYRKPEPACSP

B1: P018.S.02.A.C06 (antibody, V domains shown)
VH: QEQLEESGGGLVQPEGSLTLTCKASGIDFSSNYYISWVRQAPGKGLEWIGCIYTGSDDAAYYASWAKGRFTISKTSSTTVTLQMTSLTAADTATYFCAREILYPTNTDSFDLWGPGTLVTVSS
VL: AQVLTQTPSSVSEPVGGIVTINCQASESISSRLAWYQQKPGQPPKLLIYRAATLASGVPSRFKGSGSGTDFTLTISDLESADAATYYCQSYVGASSGGYFFGGGTEVVVK
notes: V regions on human Ig constant parts; also called AB27_32
B2: P018.S.05.A.C06 (antibody, V domains shown)
VH: QSLEESGGRLVTPGTPLTLTCTASGFSLSNYYITWVRQAPGEGLEWIGTISTAGNTYFASWAKGRFTISRTSTTVDLKMTSPTTEDTATYFCARDGAGDSNYYRNLWGQGTLVTVSS
VL: DIVLTQTPASVEAAVGGTVTIKCQASQSIDRFLAWYQQKPGQPPKLLIVDASTLESGVPSRFSGSGSGTEFTLTISDLESDNAATYYCQQGYSISDIDNVFGGGTEVVVK
notes: V regions on human Ig constant parts; also called AB27_85
B3: P018.S.06.A.F01 (antibody, V domains shown)
VH: B2 VH with N30S, I33M
VL: B2 VL with D1A, I2Y, V3D, L4M, Q27E
notes: V regions on human Ig constant parts; also called AB27_107
B4: P018.S.07.A.F03 (antibody, V domains shown)
VH: B2 VH with K63N
VL: B2 VL
notes: V regions on human Ig constant parts; also called AB27_127
B5: P018.S.06.A.E01 (antibody, V domains shown)
VH: B2 VH with N30S, I33M, A62V, A93T
VL: B2 VL with D1A, V3D, L4M, Q27E, S93A
notes: V regions on human Ig constant parts; also called AB27_104
B6: P018.S.02.A.G03 (antibody, V domains shown)
VH: QSVEESGGRLVTPGTPLTLTCTVSGFSLSSYVMSWVRQAPGKGLEWIGYIDYGGTAYYASWAKGRFTISKTSTTVELKITSPTIEDTATYFCARGGYGGYILVTGLWGPGTLVTVSS
VL: DIVMTQTPASVSEPVGGTVTIKCQASQTIISYLSWYQQKPGQPPKLLIYGASTLASGVPSRFKGSGSVTEYTLTISDLESADAATYYCQTYYGGGPFGNGFGGGTEVVVK
notes: V regions on human Ig constant parts; also called AB27_38
B7: P018.S.09.A.H04 (antibody, V domains shown)
VH: B6 VH with I50S, S60N, G98D, I101L
VL: B6 VL with T28S, I30S, S34A, G50S, P59S, V68G
notes: V regions on human Ig constant parts; also called AB27_161
B8: P018.S.02.A.F06 (antibody, V domains shown)
VH: B6 VH with A56P
VL: B6 VL with I2V, T28S, I30S, L33C, K39R, V68G
notes: V regions on human Ig constant parts; also called AB27_36
B9: P018.S.03.A.H05 (antibody, V domains shown)
VH: QSLEESGGDLVKPGASLTLTCTASGFSFSDRHYMCWVRQAPGKGLEWIGSIYTGKDSIDYASWAKGRFTISKTSSTTVTLQMTSLTAADTATYFCARDLLYGSSSGYLHTWGPGTLVTVSS
VL: DIVMTQTPSSVSEPVGGTVTIKCQASHNIYSNLAWYQQKLGQPPKLLIYYASTLASGVPSRFKGSGSGTEYTLTISDLESDDAATYYCQSAYYGSIDITFGGGTEVVAQ
notes: V regions on human Ig constant parts; also called AB27_63
B10: P018.S.08.A.H02 (antibody, V domains shown)
VH: QSLEESGGRLVTPGTPLTLTCTASGFSLSYYYMTWVRQAPGKGLEWIGITGGGGDTYYGTWAKGRFTISKTSTTVDLKMTSPTTEDTATYFCARGTDGAAHTGFALWGQGTLVTVSS
VL: DIVMTQTPASVEAAVGGTVTIKCQASEDISSRLSWYQQKPGQPPKLLIYLASTLASGVPSRFKGSGSGTQFTLTISDLESADAATYYCQSSSYGTSTIYGTFGGGTEVVVK
notes: V regions on human Ig constant parts; also called AB27_142
B11: P018.S.07.A.B06 (antibody, V domains shown)
VH: QEQLVESGGDLVKPGTSLTLTCKASGLDFSSTPYMCWVRQAPGKGLEWIACIYTGSVIYTYYASWAKDRFTISKISSTSVTLQMTSLTVADTATYFCARSPAGYAAYGYGGFNLWGPGTLVTVSS
VL: AIEMTQTPFSVSAAVGGTVTINCQASQNIYNNLAWYQQKPGQPPKLLIYGASTLESGVPSRFEGSGSGTEYTLTISDLESDDAATYYCQSAYYSSSATDMAFGGGTEVVVK
notes: V regions on human Ig constant parts; also called AB27_118
B12: P018.S.05.A.E04 (antibody, V domains shown)
VH: QEQLEESGGDLVKPEGSLTLTCTASGFSFSSYWICWVRQAPGKGLEWIACIATHSGTDFYASWAKGRFTISKTSSTTVTLQMTSLTAADTATYFCARDPYGFNGDYFSLWGPGTLVTVSS
VL: ALVMTQTPASVSAAVGGTVTINCQASQSVYNSNYLSWYQQKPGQPPKLLIYKASTLASGVPSRFKGSGSGTQFTLTISGVESDDAATYYCAGYKSYTNDDNGFGGGTEVVVK
notes: V regions on human Ig constant parts; also called AB27_90
B13: P018.S.04.A.H04 (antibody, V domains shown)
VH: QSVEESGGRLVTPGTPLTLTCTVSRFSLSTSTMTWVRQAPGKGLEWIGIINGGGSAYYANWAKGRFTISKTSTTVDLKITSPTTEDTATYFCARSYDSYDDIYGTSRLYAFDPWGPGTLVTVSS
VL: AYDMTQTPASVEVAVGGTVTINCQASESIYSNLAWYQQKPGQPPKLLIYRASYLASGVSSRFKGSGSGTQFTLTISGVESADAATYYCQQGYSSSDVDNAFGGGTEVVVK
notes: V regions on human Ig constant parts; also called AB27_79
B14: P018.S.04.A.F04 (antibody, V domains shown)
VH: QSVEESGGRLVTPGTPLTLTCTVSGFSLSNYAMSWVRQAPGKGLEWIGIIYASGTTYYARWAKGRFTISRTSTTVDLKISSPTTEDTATYFCAREYDSYDYAYGSSIYAFDPWGPGTLVTVSS
VL: B13 VL with A9S, E12S, V13A, N22K, P43R, Y53T, T74S, D96N, A100V
notes: V regions on human Ig constant parts; also called AB27_77
B15: P018.S.03.A.C02 (antibody, V domains shown)
VH: B13 VH
VL: B13 VL with A14V, N22S, S31A, D96N, A100S
notes: V regions on human Ig constant parts; also called AB27_44
B16: P018.S.01.A.B04 (antibody, V domains shown)
VH: QEQLEESGGRLVTPGGTLTLTCTASGFSLSSYDMSWVRQAPGKGLEWIGYIWSDGNTDYASWAAGRFTASRASTTVDLKMTSLTTEDTATYFCARGYTGFFLWGPGTLVTVSS
VL: DVVMTQTPSSVSAAVGGTVTIKCQASQSIGSSYLSWYQQKPGQPPKLLIYKTSTLASGVPSRFKGSGSGTEFTLTISDLESDDAATYYCQCTYYGGSWRVAFGGGTEVVVK
notes: V regions on human Ig constant parts; also called AB27_5
B17: P018.S.01.A.D04 (antibody, V domains shown)
VH: B16 VH with S31N
VL: B16 VL with A13T, G17D
notes: V regions on human Ig constant parts; also called AB27_12
B18: P018.S.05.A.H02 (antibody, V domains shown)
VH: B16 VH with S30N
VL: B16 VL with K51E, T52A
notes: V regions on human Ig constant parts; also called AB27_94
B19: P018.S.01.A.B05 (antibody, V domains shown)
VH: B16 VH with S61T
VL: B16 VL with G96S
notes: V regions on human Ig constant parts; also called AB27_6
B20: P018.S.01.A.G02 (antibody, V domains shown)
VH: B16 VH with S61T
VL: B16 VL
notes: V regions on human Ig constant parts; also called AB27_21

The binders below were run against T1, CD27 protein (His-tagged, Sino …) (assay: ELISA on coated His-tagged CD27).
Also: test concentration or dose not given here.

| ELISA [abs. corr.] | Binder |
| --- | --- |
| 3.37 | B1 |
| 3.35 | B2 |
| 3.4 | B3 |
| 3.53 | B4 |
| 3.35 | B5 |
| 3.13 | B6 |
| 3.36 | B7 |
| 3.24 | B8 |
| 3.36 | B9 |
| 3.58 | B10 |
| 3.35 | B11 |
| 3.35 | B12 |
| 3.46 | B13 |
| 3.35 | B14 |
| 3.36 | B15 |
| 3.36 | B16 |
| 3.4 | B17 |
| 3.47 | B18 |
| 3.5 | B19 |
| 3.67 | B20 |

The binders below were run against T2, CD27 expressed on the cell surface … (assay: cellular binding assay, HT1080_CD27 cells).

| Cellular binding assay [RFU] | Binder |
| --- | --- |
| 348 | B1 |
| 351 | B2 |
| 310 | B3 |
| 380 | B4 |
| 354 | B5 |
| 357 | B6 |
| 314 | B7 |
| 294 | B8 |
| 294 | B9 |
| 352 | B10 |
| 372 | B11 |
| 332 | B12 |
| 291 | B13 |
| 320 | B14 |
| 317 | B15 |
| 382 | B16 |
| 341 | B17 |
| 336 | B18 |
| 376 | B19 |
| 363 | B20 |

Each binder was assayed against T2, CD27 expressed on the cell surface … (assay: cell-based or functional assay).

| IL-8, cross-linked by F(ab')2 fragment [abs. corr.] | IL-8 [abs. corr.] | Binder |
| --- | --- | --- |
| 1.59 | 0.418 | B1 |
| 1.11 | 0.539 | B2 |
| 1.08 | 0.405 | B3 |
| 1.41 | 0.444 | B4 |
| 1.55 | 0.525 | B5 |
| 1.48 | -0.061 | B6 |
| 1.4 | 0.274 | B7 |
| 1.73 | 0.094 | B8 |
| 1.39 | 0.401 | B9 |
| 1.91 | 0.328 | B10 |
| 1.07 | 0.218 | B11 |
| 1.33 | 0.813 | B12 |
| 1.98 | 0.579 | B13 |
| 2.49 | 1.6 | B14 |
| 1.58 | 0.373 | B15 |
| 2.12 | 0.582 | B16 |
| 2.2 | 0.175 | B17 |
| 1.9 | 0.369 | B18 |
| 1.88 | 0.453 | B19 |
| 1.88 | 0.848 | B20 |
